Consider 17 molecules from patent publication US20160297884A1 (Pfizer, published 2016).

Assay [1] addresses T1, Human BCMA (human, UniProt Q02223 1-54, limits assumed).
T1 construct: Soluble analyte in SPR; construct not described; also called huBCMA; B-cell maturation antigen
T1 sequence (looked up): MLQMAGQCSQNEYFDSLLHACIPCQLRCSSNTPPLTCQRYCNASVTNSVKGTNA
Briefly: SPR, IgG immobilised, 25 C. On the procedure: (§1) All experiments were performed on a Bio-Rad Proteon XPR36 surface Plasmon resonance biosensor (Bio-Rad, Hercules, Calif.). […] The analysis temperature for the immobilization was 25° C. and the running buffer was HBS-T+(10 mM HEPES, 150 mM NaCl, 0.05% Tween-20, pH 7.4). Channels were activated in the analyte (horizontal) direction by injecting a mixture of 1 mM ECD and 0.25 mM NHS for 3 minutes at a flow rate of 30 μL/min. IgGs were immobilized on the activated spots by injecting them in the ligand (vertical) direction at 20 μg/mL in 10 mM Acetate pH 4.5 buffer for 1.5 minutes at […]. The activated surfaces were blocked by injecting 1M ethanolamine, pH 8.5 in the analyte direction for 3 minutes at 30 μL/min.
(§2) The analysis temperature for the BCMA binding analysis was 37° C. or 25° C. in a running buffer of HBS-T+, supplemented with 1 mg/mL BSA. A kinetic titration method was employed for the interaction analysis as described in Abdiche, et al. Human BCMA (huBCMA) or cynomolgus monkey BCMA (cyBCMA) analyte was injected in the analyte direction using a series of injections from low to high concentration. The concentrations used were 0.08 nM, 0.4 nM, 2 nM, 10 nM and 50 nM (a 5-membered series, with a 5-fold dilution factor and top concentration of 50 nM). The association time for a given analyte dilution was two minutes. Immediately after the 50 nM BCMA injection, dissociation was monitored for 2 hours.
(§3) The sensorgrams were double-referenced and fit to a 1:1 Langmuir with mass transport kinetic titration model in BIAevaluation Software version 4.1.1 (GE Lifesciences, Piscataway, N.J.).

Assay [2] addresses T2, cynomolgus monkey BCMA (cynomolgus monkey, UniProt A0A2K5UD97 1-53).
T2 construct: Soluble analyte in SPR; construct not described; also called cyBCMA; Cyno BCMA
The assay can be described thus: SPR, IgG immobilised, 25 C. The method, then: as §1, §2, §3

Assay [3] deals with T1, Human BCMA. Briefly: SPR, IgG immobilised, 37 C. Summed up: (§4)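 IgGs were amine-coupled (EDC/NHS, 20 μg/mL in acetate pH 4.5) and BCMA, human or cynomolgus, was injected by kinetic titration at 0.08, 0.4, 2, 10 and 50 nM, 2 min each, in HBS-T+ pH 7.4 with 1 mg/mL BSA at 37° C or 25° C. Dissociation was followed for 2 hours.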
The target of assay [4] is T2, cynomolgus monkey BCMA. The assay can be described thus: SPR, IgG immobilised, 37 C. Summed up:
as §4
Background: SPR reads the build-up and loss of mass on a sensor chip optically.

Numbering of substitutions follows the chain as printed.

T2 sequence (A0A2K5UD97 entry or part of it): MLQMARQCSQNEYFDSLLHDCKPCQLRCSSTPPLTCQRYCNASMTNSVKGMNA

B1: L1.GDF/L3.KW/H3.AL (antibody, V domains shown)
VH: EVQLLESGGGLVQPGGSLRLSCAASGFTFGSYAMTWVRQAPGKGLEWVSAISGSGGNTFYADSVKGRFTISRDNSKNTLYLQMNSLRAEDTAVYYCARVSPIAALMDYWGQGTLVTVSS
VL: EIVLTQSPGTLSLSPGERATLSCRASQSVGDFYLAWYQQKPGQAPRLLIYGASSRATGIPDRFSGSGSGTDFTLTISRLEPEDFAVYYCKHYGWPPSFTFGQGTKVEIK
notes: IgG
Turning to B1, in the assay with Human BCMA [1], the Kd was 8.76 nM, the “T ½” value was found to be 2.96 min, the koff stood at 0.0039 s⁻¹ and the kon came out at 445000 M⁻¹ s⁻¹. Also, in the assay with cynomolgus monkey BCMA [2], the Kd came to 56.7 nM, the “T ½” value was 0.6 min, the koff worked out at 0.018 s⁻¹ and the kon stood at 318000 M⁻¹ s⁻¹.

B2: P6E01/P6E01 (antibody, V domains shown)
VH: B1 VH with A104S, L105G
VL: not shown
notes: IgG
With B2, in the assay with Human BCMA [1], the Kd is 4 nM and the “T ½” value came out at 2.8 min.

B3: L1.GDF/L3.KW/H3.AP (antibody, V domains shown)
VH: B1 VH with L105P
VL: B1 VL
notes: IgG
Turning to B3, in the assay with Human BCMA [1], the Kd was determined as 3.93 nM, the “T ½” value was 2.51 min, the koff came out at 0.00461 s⁻¹ and the association rate constant (kon) was 1.17e+06 M⁻¹ s⁻¹. In the assay with cynomolgus monkey BCMA [2], the Kd was 24.9 nM, the “T ½” value was determined as 0.6 min, the koff was 0.0203 s⁻¹ and the kon was 814000 M⁻¹ s⁻¹.

B4: L1.GDF/L3.KW/H3.AQ (antibody, V domains shown)
VH: B1 VH with L105Q
VL: B1 VL
notes: IgG
B4: in the assay with Human BCMA [1], the Kd is 4.37 nM, the “T ½” value worked out at 3.32 min, the koff amounted to 0.00348 s⁻¹ and the kon was determined as 797000 M⁻¹ s⁻¹. Moreover, in the assay with cynomolgus monkey BCMA [2], the Kd was determined as 7 nM, the “T ½” value was 2 min, the koff came out at 0.00565 s⁻¹ and the kon turned out to be 802000 M⁻¹ s⁻¹.

B5: L1.GDF/L3.NY/H3.AQ (antibody, V domains shown)
VH: B1 VH with L105Q
VL: B1 VL with K90Q, G93N, W94Y
notes: IgG
In the case of B5, in the assay with Human BCMA [1], the Kd came out at 0.73 nM, the “T ½” value turned out to be 16 min, the koff was determined as 0.000722 s⁻¹ and the kon was found to be 984000 M⁻¹ s⁻¹. In the assay with cynomolgus monkey BCMA [2], the affinity, expressed as Kd, was 1.2 nM; the “T ½” value is 8.5 min; the koff was found to be 0.00136 s⁻¹; the kon stood at 1.18e+06 M⁻¹ s⁻¹.

B6: L3.PY/L1.PS/P6E01 (antibody, V domains shown)
VH: B1 VH with A104S, L105G
VL: B1 VL with G30S, D31S, F32S, L34P, A35S, K90Q, G93P, W94Y
notes: IgG
Take B6: in the assay with Human BCMA [3], binding was characterised by a dissociation constant (Kd) of 0.45 nM, the “T ½” value came to 10.2 min, the koff was 0.00113 s⁻¹ and the kon was 2.49e+06 M⁻¹ s⁻¹. Moreover, in the assay with cynomolgus monkey BCMA [4], the Kd came to 2.79 nM, the “T ½” value came out at 1.91 min, the koff was 0.00606 s⁻¹ and the kon was 2.17e+06 M⁻¹ s⁻¹.

B7: L1.GDF/L3.NY/H3.AL (antibody, V domains shown)
VH: B1 VH
VL: B1 VL with K90Q, G93N, W94Y
notes: IgG
As to B7, in the assay with Human BCMA [1], the Kd is 4.44 nM, the “T ½” value came to 2.87 min, the koff worked out at 0.00403 s⁻¹ and the kon was determined as 907000 M⁻¹ s⁻¹. In addition, in the assay with cynomolgus monkey BCMA [2], the Kd came out at 24.3 nM, the “T ½” value was 0.5 min, the koff worked out at 0.0219 s⁻¹ and the kon is 900000 M⁻¹ s⁻¹.

B8: L1.GDF/L3.PY/H3.AQ (antibody, V domains shown)
VH: B1 VH with L105Q
VL: B1 VL with K90Q, G93P, W94Y
notes: IgG
For B8, in the assay with Human BCMA [1], the Kd was determined as 9.49 nM, the “T ½” value was determined as 0.86 min, the koff amounted to 0.0135 s⁻¹ and the kon stood at 1.42e+06 M⁻¹ s⁻¹. In addition, in the assay with cynomolgus monkey BCMA [2], binding was put at a Kd of 10.7 nM, the “T ½” value is 0.7 min, the koff was determined as 0.0166 s⁻¹ and the kon worked out at 1.55e+06 M⁻¹ s⁻¹.

B9: L1.LGF/L3.KW/H3.AQ (antibody, V domains shown)
VH: B1 VH with L105Q
VL: B1 VL with V29L, D31S
notes: IgG
Take B9: in the assay with Human BCMA [1], the Kd was 1.82 nM, the “T ½” value was determined as 12.1 min, the koff came out at 0.000956 s⁻¹ and the kon worked out at 524000 M⁻¹ s⁻¹. In the assay with cynomolgus monkey BCMA [2], the Kd was determined as 6.7 nM, the “T ½” value came to 3.3 min, the koff worked out at 0.00355 s⁻¹ and the kon was 527000 M⁻¹ s⁻¹.

B10: L3.PY/L3.KF/P6E01 (antibody, V domains shown)
VH: B1 VH with A104S, L105G
VL: B1 VL with G30S, D31S, F32S, H91F, G93P, W94Y
notes: IgG
Turning to B10, in the assay with Human BCMA [3], binding was put at a Kd of 0.72 nM, the “T ½” value was 5.56 min, the koff was determined as 0.00208 s⁻¹ and the kon is 2.88e+06 M⁻¹ s⁻¹. Also, in the assay with cynomolgus monkey BCMA [4], the Kd worked out at 3.48 nM, the “T ½” value was found to be 1.39 min, the koff stood at 0.0083 s⁻¹ and the kon was 2.39e+06 M⁻¹ s⁻¹.

B11: L1.LGF/L3.KW/H3.AP (antibody, V domains shown)
VH: B1 VH with L105P
VL: B1 VL with V29L, D31S
notes: IgG
Consider B11, for which, in the assay with Human BCMA [1], the Kd worked out at 2.44 nM, the “T ½” value came to 5.1 min, the koff was found to be 0.00227 s⁻¹ and the kon is 928000 M⁻¹ s⁻¹. For the same molecule, in the assay with cynomolgus monkey BCMA [2], binding was characterised by a dissociation constant (Kd) of 27.8 nM, the “T ½” value was 0.7 min, the koff was determined as 0.0154 s⁻¹ and the kon worked out at 554000 M⁻¹ s⁻¹.

B12: L1.LGF/L3.KW/P6E01 (antibody, V domains shown)
VH: B1 VH with A104S, L105G
VL: B1 VL with V29L, D31S
notes: IgG
On to B12, for which, in the assay with Human BCMA [1], binding was characterised by a dissociation constant (Kd) of 9.08 nM, the “T ½” value was found to be 1.53 min, the koff worked out at 0.00755 s⁻¹ and the kon was determined as 831000 M⁻¹ s⁻¹. In addition, in the assay with cynomolgus monkey BCMA [2], the Kd stood at 42.8 nM, the “T ½” value stood at 0.6 min, the koff stood at 0.0195 s⁻¹ and the kon was 455000 M⁻¹ s⁻¹.

B13: L1.LGF/L3.KW/H3.AL (antibody, V domains shown)
VH: B1 VH
VL: B1 VL with V29L, D31S
notes: IgG
With B13, in the assay with Human BCMA [1], the Kd came out at 2.87 nM, the “T ½” value turned out to be 9.4 min, the koff turned out to be 0.00123 s⁻¹ and the on-rate (kon) is 428000 M⁻¹ s⁻¹. In the assay with cynomolgus monkey BCMA [2], the affinity, expressed as Kd, was 41.8 nM; the “T ½” value stood at 1 min; the koff came to 0.0121 s⁻¹; the kon came to 290000 M⁻¹ s⁻¹.

B14: L1.GDF/L3.NY/P6E01 (antibody, V domains shown)
VH: B1 VH with A104S, L105G
VL: B1 VL with K90Q, G93N, W94Y
notes: IgG
Consider B14, for which, in the assay with Human BCMA [1], the Kd was determined as 3.7 nM, the “T ½” value is 1.95 min, the koff stood at 0.00592 s⁻¹ and the kon is 1.6e+06 M⁻¹ s⁻¹. Moreover, in the assay with cynomolgus monkey BCMA [2], binding was characterised by a dissociation constant (Kd) of 6.4 nM, the “T ½” value came out at 1.5 min, the koff stood at 0.00767 s⁻¹ and the kon turned out to be 1.2e+06 M⁻¹ s⁻¹.

B15: P6E01/H3.AQ (antibody, V domains shown)
VH: B1 VH with L105Q
VL: not shown
notes: IgG
Turning to B15, in the assay with Human BCMA [1], the Kd stood at 0.41 nM and the “T ½” value was determined as 33.5 min.

B16: L1.GDF/L3.NY/H3.AP (antibody, V domains shown)
VH: B1 VH with L105P
VL: B1 VL with K90Q, G93N, W94Y
notes: IgG
Take B16: in the assay with Human BCMA [1], binding was put at a Kd of 1 nM, the “T ½” value is 8.21 min, the koff came out at 0.00141 s⁻¹ and the kon was 1.41e+06 M⁻¹ s⁻¹. For the same molecule, in the assay with cynomolgus monkey BCMA [2], binding was characterised by a dissociation constant (Kd) of 5.2 nM, the “T ½” value came out at 1.6 min, the koff is 0.00702 s⁻¹ and the kon was found to be 1.36e+06 M⁻¹ s⁻¹.

B17: L3.PY/L3.KY/P6E01 (antibody, V domains shown)
VH: B1 VH with A104S, L105G
VL: B1 VL with G30S, D31S, F32S, H91Y, G93P, W94Y
notes: IgG
As for B17, in the assay with Human BCMA [3], binding was characterised by a dissociation constant (Kd) of 0.34 nM, the “T ½” value is 10.7 min, the koff was 0.00109 s⁻¹ and the kon came to 3.18e+06 M⁻¹ s⁻¹. In the assay with cynomolgus monkey BCMA [4], the Kd came out at 2.21 nM, the “T ½” value is 2.3 min, the koff came to 0.00502 s⁻¹ and the kon was 2.27e+06 M⁻¹ s⁻¹.

For orientation: Kd means the concentration at which binding is half-saturated. The koff is the rate constant with which the complex falls apart. As usually defined, the kon is the second-order rate constant of association.
